Assay [1] concerns the target biotinylated recombinant ESO157/HLA-A*02:05 complex (human). Description: BLI (Octet QK), biotinylated pMHC on streptavidin sensor, BsAb 10 ug/mL. On the technique in general: In BLI a coated tip is dipped into the sample, and binding shifts an interference pattern.
In assay [2] the target is biotinylated recombinant ESO157/HLA-A*02:11 complex (human). The assay is described as above.
In assay [3] the target is biotinylated recombinant ESO157/HLA-A*02:06 complex (human). Described as above.
The target in assay [4] is biotinylated recombinant ESO157/HLA-A*02:02 complex (human). Described as above.
For assay [5], the target named is biotinylated recombinant ESO157/HLA-A*02:03 complex (human). Described as above.
The target in assay [6] is biotinylated recombinant ESO157/HLA-A*02:05 complex (human). The assay is described as above. The source holds these as a separate data set.
Assay [7] deals with biotinylated recombinant ESO157/HLA-A*02:02 complex (human). The description is as above. This is another data set of the same source.
In assay [8] the target is T1, biotinylated recombinant ESO157 wild type peptide/HLA-A*02:01 complex monomer (human).
T1 construct: also called recombinant ESO157/HLA-A*02:01 complex; biotin-labelled ESO157 wild type peptide/HLA-A*02:01 complex
Description: SPR (Biacore X100), biotinylated pMHC on streptavidin chip, BsAb as analyte.

B1: ESO157 BsAb #66 (anti-ESO157/HLA-A*02:01 scFv x anti-human CD3epsilon scFv, single chain) (bispecific antibody)
chain: QSVLTQPPSVSGAPGQRVTISCTGSSSNIGAGYDVHWYQQLPGTAPKLLIYGNSNRPSGVPDRFSGSKSGTSASLAITGLQAEDEADYYCQSYDSSLSGSWVFGGGTKLTVLGSRGGGGSGGGGSGGGGSLEMAEVQLVESGAEVKRPGASVKVSCKASGYTFTSYGISWVRQAPGQGLEWMGRFIPNLNKGNSAHKFEGRVSFTADKFTNTAYMELRGLKSDDTAVYYCARGDYGSDQWGQGTLVTVSS
In general, Kd refers to the equilibrium constant for the complex coming apart. In the case of B1, the Kd was 33 nM in assay [1]; 48 nM in assay [2]; 58 nM in assay [3]; 25 nM in assay [4]; 47 nM in assay [5].

B2: ESO157 BsAb #148 (anti-ESO157/HLA-A*02:01 scFv x anti-human CD3epsilon scFv, single chain) (bispecific antibody, V domains shown, not shown: small tags and cut ends)
VH: EVQLVQSGAEVKKPGASVKVSCKASGGTFSSYAISWVRQAPGQGLEWMGGIIPIFGTANYAQKFQGRVTITADKSTSTAYMELSSLRSEDTAVYYCARSYWSWTPYDPWGQGTLVTVSS
VL: LPVLTQPPSVSVAPGKTARITCGGNNIGSKSVHWYQQKPGQAPVLVIYYDSDRPSGIPERFSGSNSGNTATLTISRVEAGDEADYYCQVWDSSSDHYVFGTGTKVTVL
Usually koff stands for the first-order rate constant of dissociation. The term kon denotes the second-order rate constant of association. Take B2: the Kd in assay [3] was 224 nM; in assay [6] it was 18 nM; in assay [5], 85 nM; in assay [7], 19 nM; in assay [8] it was 6 nM. Moreover, the off-rate constant (koff) in assay [8] was determined as 0.000902 s⁻¹. Also, the kon in assay [8] stood at 151000 M⁻¹ s⁻¹.

B3: ESO157 BsAb #76 (anti-ESO157/HLA-A*02:01 scFv x anti-human CD3epsilon scFv, single chain) (bispecific antibody)
chain: QSVVTQPPSLSGAPGQRVTISCNGSGSNIGAGYDVHWYQQLPGTAPKLLIYGNSNRPSGVPDRFSGSKSGTSASLAITGLQAEDEADYYCQSYDSSLSGWGIFGGGTKLTVLGSRGGGGSGGGGSGGGGSLEMAEVQLVQSGAEVKKPGSSVKVSCKASGGTFSSYAISWVRQAPGQGLEWMGGIIPIFGTANYAQKFQGRVTITADESTSTAYMELSSLRSEDTAVYYCARYDSYVYDEWGQGTLVTVSS
On to B3, for which the Kd in assay [1] was found to be 40 nM; in assay [2] it was 97 nM; in assay [3], 126 nM; in assay [4], 34 nM; in assay [5] it was 47 nM.

(Values after patent US20190382504A1 (EUREKA THERAPEUTICS, published 2019).)
